T1: Yfr024 SH3 (LSB3_YEAST), P43603
T1 chain: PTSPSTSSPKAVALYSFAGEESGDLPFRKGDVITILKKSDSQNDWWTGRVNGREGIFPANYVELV

T2: Yhr016c SH3 (YSC84_YEAST), P32793
T2 chain: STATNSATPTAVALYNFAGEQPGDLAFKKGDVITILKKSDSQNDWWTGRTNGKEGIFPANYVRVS

T3: Boi1 SH3 (BOI1_YEAST), P38041
T3 chain: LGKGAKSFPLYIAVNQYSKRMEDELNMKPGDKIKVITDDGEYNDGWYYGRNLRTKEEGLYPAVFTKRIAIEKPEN

T4: Rvs167 SH3 (RV167_YEAST), P39743
T4 chain: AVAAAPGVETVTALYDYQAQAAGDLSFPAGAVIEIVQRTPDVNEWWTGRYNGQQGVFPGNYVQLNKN

T5: Boi2 SH3 (BOI2_YEAST), P39969
T5 chain: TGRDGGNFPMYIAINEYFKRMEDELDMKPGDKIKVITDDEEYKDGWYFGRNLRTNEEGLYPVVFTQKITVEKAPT


Columns and labels:
Test in all cases: SPOT array
[1] = target: T1, Yfr024 SH3 (LSB3_YEAST), P43603
[2] = target: T2, Yhr016c SH3 (YSC84_YEAST), P32793
[3] = target: T3, Boi1 SH3 (BOI1_YEAST), P38041
[4] = target: T4, Rvs167 SH3 (RV167_YEAST), P39743
[5] = target: T5, Boi2 SH3 (BOI2_YEAST), P39969

| Binder | normalised SPOT signal, Boehringer light units (BLU); mean over the file's lines of this peptide [1] | normalised SPOT signal, Boehringer light units (BLU); mean over the file's lines of this peptide [2] | normalised SPOT signal, Boehringer light units (BLU); mean over the file's lines of this peptide [3] | normalised SPOT signal, Boehringer light units (BLU); mean over the file's lines of this peptide [4] | normalised SPOT signal, Boehringer light units (BLU); mean over the file's lines of this peptide [5] |
| --- | --- | --- | --- | --- | --- |
| PIMPTLPPRPYITI [YGL060W 537-550] | 26100 | 24900 | 31.6 | 5510 | 87.6 |
| PKDPSSPQRDEILT [YBR271W 27-40] | 6.2 | 0 | 138 | 53.2 | 156 |
| PFIPKFPSRESVES [YBR036C 302-315] | 2600 | 1410 | 39.7 | 506 | 70.4 |
| PNEPGAPSRLSFEN [YBL067C 285-298] | 34.7 | 258 | 104 | 52.4 | 71.5 |
| PFLPVLPQKPGGVR [YDR178W 35-48] | 12700 | 338 | 49.9 | 20 | 35.7 |
| PLPPIPPTKSKTSP [YHL007C 535-548] | 504 | 140 | 80.6 | 30.2 | 21 |
| PLIPDNPGRLLSSK [YEL023C 311-324] | 200 | 205 | 94.5 | 42.7 | 48.5 |
| PPPPPPPSRKSGTP [YDL146W 477-490] | 6880 | 2480 | 563 | 1520 | 50.2 |
| PNYPDSPPKVTFIS [YGL087C 66-79] | 87.1 | 260 | 68.6 | 12.5 | 76.3 |
| PMSPGPPSKKDSRH [YJL005W 495-508] | 996 | 178 | 127 | 138 | 147 |
| PNSPTPPLKSKVSR [YER164W 1337-1350] | 866 | 164 | 170 | 25 | 40.1 |
| PPVPKAPSRRSSSL [YER132C 943-956] | 29400 | 6150 | 1230 | 1660 | 753 |
| PPEPATPSKKSLTT [YBR060C 169-182] | 41.3 | 66.6 | 46.1 | 23.8 | 26.2 |
| PLQPRPPVKPLSKQ [YGR084C 87-100] | 861 | 128 | 91.7 | 57.3 | 34.5 |

Other lines, results leading:

| normalised SPOT signal, Boehringer light units (BLU); mean over the file's lines of this peptide [1] | normalised SPOT signal, Boehringer light units (BLU); mean over the file's lines of this peptide [2] | normalised SPOT signal, Boehringer light units (BLU); mean over the file's lines of this peptide [3] | normalised SPOT signal, Boehringer light units (BLU); mean over the file's lines of this peptide [4] | normalised SPOT signal, Boehringer light units (BLU); mean over the file's lines of this peptide [5] | Binder |
| --- | --- | --- | --- | --- | --- |
| 2650 | 1710 | 87.2 | 332 | 59.6 | PQGPGIPPRTYEAS [YPL084W 769-782] |
| 2200 | 173 | 80.5 | 50.1 | 45.9 | PFLPKIPQKPGGVS [YLR164W 27-40] |
| 38000 | 39200 | 227 | 5510 | 28.3 | PKEPRLPKRKVAVM [YPL212C 67-80] |
| 1030 | 100 | 60 | 36.6 | 58 | PPPPPPPPKPPLND [YMR089C 156-169] |
| 2050 | 545 | 72.7 | 124 | 37.5 | PPLPPIPTRDDMSN [YNL152W 329-342] |
| 60.6 | 52.8 | 104 | 20.4 | 7.9 | PIQPQEPFRHNTTI [YNL085W 152-165] |
| 7410 | 5170 | 628 | 34500 | 33300 | PIVPREPLRNEPTD [YPL255W 118-131] |
| 2930 | 62.5 | 82.1 | 40.5 | 37.8 | PPPPPVPAKLFGES [YNL271C 1244-1257] |

From paper PMC314469, “Protein Interaction Networks by Proteome Peptide Scanning” (PLoS Biology, 2004)
